Data as given in patent US20250382390A1 (Chugai, published 2025).

How the values were obtained:
[1] = target: activated blood coagulation factor IX (FIXa) (UniProt P00740 47-461, limits assumed); test: cell-based or functional assay
[2] = target: blood coagulation factor X (FX) (UniProt P00742 41-488, limits assumed); test: cell-based or functional assay
Chain of blood coagulation factor X (FX) (P00742 41-488 limits assumed): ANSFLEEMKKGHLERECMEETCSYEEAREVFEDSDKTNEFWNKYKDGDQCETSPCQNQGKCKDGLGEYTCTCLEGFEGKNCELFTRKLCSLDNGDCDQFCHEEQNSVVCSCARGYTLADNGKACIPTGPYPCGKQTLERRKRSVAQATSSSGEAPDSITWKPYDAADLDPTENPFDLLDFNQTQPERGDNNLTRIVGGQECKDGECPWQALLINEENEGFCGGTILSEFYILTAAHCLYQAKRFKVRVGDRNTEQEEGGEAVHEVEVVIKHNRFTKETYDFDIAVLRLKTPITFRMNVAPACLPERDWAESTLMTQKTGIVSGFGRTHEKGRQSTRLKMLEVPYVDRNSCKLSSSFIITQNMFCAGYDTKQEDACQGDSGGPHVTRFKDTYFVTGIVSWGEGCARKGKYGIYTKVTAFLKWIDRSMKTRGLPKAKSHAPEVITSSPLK

Chain of activated blood coagulation factor IX (FIXa) (P00740 47-461 limits assumed): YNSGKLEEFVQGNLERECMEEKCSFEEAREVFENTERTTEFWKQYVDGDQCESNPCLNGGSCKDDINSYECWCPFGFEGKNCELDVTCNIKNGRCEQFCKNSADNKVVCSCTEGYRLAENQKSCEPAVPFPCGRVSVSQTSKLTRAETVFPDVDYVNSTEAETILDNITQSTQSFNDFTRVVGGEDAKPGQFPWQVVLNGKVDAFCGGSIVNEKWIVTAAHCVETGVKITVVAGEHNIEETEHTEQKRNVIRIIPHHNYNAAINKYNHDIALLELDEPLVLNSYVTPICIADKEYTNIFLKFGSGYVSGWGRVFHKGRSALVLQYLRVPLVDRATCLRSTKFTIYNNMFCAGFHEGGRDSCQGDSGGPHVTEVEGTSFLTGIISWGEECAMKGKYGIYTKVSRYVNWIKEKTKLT

| biological activity relative to the Emicizumab standard solution (chromogenic assay: FXa produced in the presence of FIXa, FX and phospholipid) [1] [%] | biological activity relative to the Emicizumab standard solution (chromogenic assay: FXa produced in the presence of FIXa, FX and phospholipid) [2] [%] | Binder |
| --- | --- | --- |
| 18 | 18 | Q-CDR-Clipped Variants (variants of Emicizumab) (bispecific antibody, human IgG4 S228P, kappa, Q chain: R at the 61st position from the N terminus (Kabat 60), or YYR at the 59th to 61st positions (Kabat 58 to 60), deleted and the chain cleaved at the deletion site; the N-terminal and C-terminal fragments are joined via a disulfide bond) heavy 1: QVQLVESGGGLVQPGGSLRLSCAASGFTFSYYDIQWVRQAPGKGLEWVSSISPSGQSTYYRREVKGRFTISRDNSKNTLYLQMNSLRAEDTAVYYCARRTGREYGGGWYFDYWGQGTLVTVSSASTKGPSVFPLAPCSRSTSESTAALGCLVKDYFPEPVTVSWNSGALTSGVHTFPAVLQSSGLYSLSSVVTVPSSSLGTQTYTCNVDHKPSNTKVDKRVESKYGPPCPPCPAPEFLGGPSVFLFPPKPKDTLMISRTPEVTCVVVDVSQEDPEVQFNWYVDGVEVHNAKTKPREEQYNSTYRVVSVLTVLHQDWLNGKEYKCKVSNKGLPSSIEKTISKAKGQPREPQVYTLPPSQKEMTKNQVSLTCLVKGFYPSDIAVEWESNGQPENNYKTTPPVLDSDGSFFLYSKLTVDKSRWQEGNVFSCSVMHEALHNRYTQKSLSLSP heavy 2: QVQLVQSGSELKKPGASVKVSCKASGYTFTDNNMDWVRQAPGQGLEWMGDINTRSGGSIYNEEFQDRVIMTVDKSTDTAYMELSSLRSEDTATYHCARRKSYGYYLDEWGEGTLVTVSSASTKGPSVFPLAPCSRSTSESTAALGCLVKDYFPEPVTVSWNSGALTSGVHTFPAVLQSSGLYSLSSVVTVPSSSLGTQTYTCNVDHKPSNTKVDKRVESKYGPPCPPCPAPEFLGGPSVFLFPPKPKDTLMISRTPEVTCVVVDVSQEDPEVQFNWYVDGVEVHNAKTKPREEQYNSTYRVVSVLTVLHQDWLNGKEYKCKVSNKGLPSSIEKTISKAKGQPREPQVYTLPPSQEEMTKNQVSLTCLVKGFYPSDIAVEWESNGQPENNYKTTPPVLDSDGSFFLYSKLTVDKSRWQEGNVFSCSVMHEALHNHYTQESLSLSP light: DIQMTQSPSSLSASVGDRVTITCKASRNIERQLAWYQQKPGQAPELLIYQASRKESGVPDRFSGSRYGTDFTLTISSLQPEDIATYYCQQYSDPPLTFGGGTKVEIKRTVAAPSVFIFPPSDEQLKSGTASVVCLLNNFYPREAKVQWKVDNALQSGNSQESVTEQDSKDSTYSLSSTLTLSKADYEKHKVYACEVTHQGLSSPVTKSFNRGEC |
| 8 | 8 | Protected Disulfide Isoforms (isoforms of Emicizumab) (bispecific antibody, human IgG4 S228P, kappa) heavy 1: QVQLVESGGGLVQPGGSLRLSCAASGFTFSYYDIQWVRQAPGKGLEWVSSISPSGQSTYYRREVKGRFTISRDNSKNTLYLQMNSLRAEDTAVYYCARRTGREYGGGWYFDYWGQGTLVTVSSASTKGPSVFPLAPCSRSTSESTAALGCLVKDYFPEPVTVSWNSGALTSGVHTFPAVLQSSGLYSLSSVVTVPSSSLGTQTYTCNVDHKPSNTKVDKRVESKYGPPCPPCPAPEFLGGPSVFLFPPKPKDTLMISRTPEVTCVVVDVSQEDPEVQFNWYVDGVEVHNAKTKPREEQYNSTYRVVSVLTVLHQDWLNGKEYKCKVSNKGLPSSIEKTISKAKGQPREPQVYTLPPSQKEMTKNQVSLTCLVKGFYPSDIAVEWESNGQPENNYKTTPPVLDSDGSFFLYSKLTVDKSRWQEGNVFSCSVMHEALHNRYTQKSLSLSP heavy 2: QVQLVQSGSELKKPGASVKVSCKASGYTFTDNNMDWVRQAPGQGLEWMGDINTRSGGSIYNEEFQDRVIMTVDKSTDTAYMELSSLRSEDTATYHCARRKSYGYYLDEWGEGTLVTVSSASTKGPSVFPLAPCSRSTSESTAALGCLVKDYFPEPVTVSWNSGALTSGVHTFPAVLQSSGLYSLSSVVTVPSSSLGTQTYTCNVDHKPSNTKVDKRVESKYGPPCPPCPAPEFLGGPSVFLFPPKPKDTLMISRTPEVTCVVVDVSQEDPEVQFNWYVDGVEVHNAKTKPREEQYNSTYRVVSVLTVLHQDWLNGKEYKCKVSNKGLPSSIEKTISKAKGQPREPQVYTLPPSQEEMTKNQVSLTCLVKGFYPSDIAVEWESNGQPENNYKTTPPVLDSDGSFFLYSKLTVDKSRWQEGNVFSCSVMHEALHNHYTQESLSLSP light: DIQMTQSPSSLSASVGDRVTITCKASRNIERQLAWYQQKPGQAPELLIYQASRKESGVPDRFSGSRYGTDFTLTISSLQPEDIATYYCQQYSDPPLTFGGGTKVEIKRTVAAPSVFIFPPSDEQLKSGTASVVCLLNNFYPREAKVQWKVDNALQSGNSQESVTEQDSKDSTYSLSSTLTLSKADYEKHKVYACEVTHQGLSSPVTKSFNRGEC |
